According to patent US20100330107A1:

Key:
24P4C12 (human) [1] = target: 24P4C12 (human) (UniProt Q53GD3); assay: FACS saturation binding on LNCaP cells with endogenous 24P4C12, one site binding fit
24P4C12 (human) [2] = target: 24P4C12 (human) (UniProt Q53GD3); assay: FACS on LNCaP cells, ADC at 7.901 nM, anti-hIgG-PE detection
24P4C12 (human) [3] = target: 24P4C12 (human) (UniProt Q53GD3); assay: FACS on LNCaP cells, ADC at 2.634 nM, anti-hIgG-PE detection
24P4C12 (human) [4] = target: 24P4C12 (human) (UniProt Q53GD3); assay: FACS on LNCaP cells, ADC at 160.000 nM, anti-hIgG-PE detection
24P4C12 (human) [5] = target: 24P4C12 (human) (UniProt Q53GD3); assay: FACS on LNCaP cells, ADC at 23.704 nM, anti-hIgG-PE detection
24P4C12 (human) [6] = target: 24P4C12 (human) (UniProt Q53GD3); assay: FACS on LNCaP cells, ADC at 0.098 nM, anti-hIgG-PE detection
24P4C12 (human) [7] = target: 24P4C12 (human) (UniProt Q53GD3); assay: FACS on LNCaP cells, ADC at 0.293 nM, anti-hIgG-PE detection
24P4C12 (human) [8] = target: 24P4C12 (human) (UniProt Q53GD3); assay: FACS on LNCaP cells, ADC at 0.011 nM, anti-hIgG-PE detection
24P4C12 (human) [9] = target: 24P4C12 (human) (UniProt Q53GD3); assay: FACS on LNCaP cells, ADC at 0.878 nM, anti-hIgG-PE detection
24P4C12 (human) [10] = target: 24P4C12 (human) (UniProt Q53GD3); assay: FACS on LNCaP cells, ADC at 0.033 nM, anti-hIgG-PE detection
24P4C12 (human) [11] = target: 24P4C12 (human) (UniProt Q53GD3); assay: FACS on LNCaP cells, ADC at 71.111 nM, anti-hIgG-PE detection
24P4C12 (human) [12] = target: 24P4C12 (human) (UniProt Q53GD3); assay: FACS on LNCaP cells, ADC at 106.667 nM, anti-hIgG-PE detection

UniProt Q53GD3, sequence (Q53GD3 whole entry): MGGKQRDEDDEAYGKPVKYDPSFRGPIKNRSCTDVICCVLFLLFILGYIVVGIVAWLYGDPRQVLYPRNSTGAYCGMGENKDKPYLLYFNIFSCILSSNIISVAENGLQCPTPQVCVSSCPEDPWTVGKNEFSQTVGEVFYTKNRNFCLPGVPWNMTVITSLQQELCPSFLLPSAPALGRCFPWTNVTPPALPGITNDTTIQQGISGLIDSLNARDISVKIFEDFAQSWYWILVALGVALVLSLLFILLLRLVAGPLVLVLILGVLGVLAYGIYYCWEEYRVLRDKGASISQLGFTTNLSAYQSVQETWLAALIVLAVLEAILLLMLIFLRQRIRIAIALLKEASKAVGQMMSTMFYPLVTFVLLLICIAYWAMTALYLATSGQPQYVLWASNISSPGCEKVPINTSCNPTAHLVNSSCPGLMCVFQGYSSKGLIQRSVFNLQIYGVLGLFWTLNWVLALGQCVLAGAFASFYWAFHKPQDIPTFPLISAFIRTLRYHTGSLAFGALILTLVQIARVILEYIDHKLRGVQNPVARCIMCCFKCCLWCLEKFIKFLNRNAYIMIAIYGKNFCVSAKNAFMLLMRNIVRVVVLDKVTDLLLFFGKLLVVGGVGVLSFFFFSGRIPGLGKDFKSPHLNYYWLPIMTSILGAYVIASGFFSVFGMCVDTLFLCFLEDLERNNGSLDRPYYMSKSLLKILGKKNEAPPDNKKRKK

Kd (24P4C12 (human) [1]): 1.05 nM
MFI (24P4C12 (human) [2]): 86 MFI
MFI (24P4C12 (human) [3]): 70 MFI
MFI (24P4C12 (human) [4]): 116 MFI
MFI (24P4C12 (human) [5]): 97 MFI
MFI (24P4C12 (human) [6]): 15 MFI
MFI (24P4C12 (human) [7]): 28 MFI
MFI (24P4C12 (human) [8]): 7 MFI
MFI (24P4C12 (human) [9]): 54 MFI
MFI (24P4C12 (human) [10]): 9 MFI
MFI (24P4C12 (human) [11]): 108 MFI
MFI (24P4C12 (human) [12]): 114 MFI
B1: Ha5-1(5)2.1vcMMAE (antibody, human IgG2, kappa, V domains shown)
VH: QVQLVESGGGVVQPGRSLRLSCAASGFTFSSYGMHWVRQAPGKGLEWVAVMSYDGSKKFYTDSVKGRFTISRDNSKNTLYLQMNSLRAEDTAVYYCARDGGDYVRYHYYGMDVWGQGTTVTVSS
VL: DIQMTQSPSTLSASIGDRVTITCRASQGISYYLAWYQQKPGKIPKLLIYDTSSLQSGVPSRFSGSRSGTDLSLTISSLQPEDVATYYCQRYDSAPLTFGGGTKVEIKR
modifications: vcMMAE (Val-Cit linker with monomethyl auristatin E) on cysteine thiols freed by partial reduction with TCEP; p about 3.6 drugs per antibody; positions not given
